Reference: patent US20260116991A1
Substitutions are numbered along the chain they refer to.

B1: hAb003LH1L1 (antibody, human IgG1, V domains shown)
VH: EVQLVQSGAEVKKPGSSVKVSCKASGYTFSDYEMHWVRQAPGQGLEWMGTIDPETGNTAYTQKFMDRVTITADKSTSTAYMELSSLRSEDTAVYYCTRGYSFTYWGQGTLVTVSS
VL: DIVMTQTPLSLPVTPGEPASISCRSSQNIVHSNGNTYLQWYLQKPGQSPQLLIFKVSNRFSGVPDRFSGSGSGTDFTLKISRVEAEDVGVYYCFQGSHVPFTFGQGTKLEIK
B2: hAb003LH1L1a (antibody, human IgG1, V domains shown)
VH: B1 VH
VL: B1 VL with N33D
B3: hAb003LH1L1b (antibody, human IgG1, V domains shown)
VH: B1 VH
VL: B1 VL with G34R
B4: hAb005LH2L1b (antibody, human IgG1, V domains shown)
VH: EVQLVQSGAEVKKPGASVKVSCKASGYTFTDYEMHWVRQAPGQGLEWMGAIDPETGNTAYIQKFKGRVTLTTDKSTSTAYMELRSLRSDDTAVYYCTRFYSYSHWGQGTTVTVSS
VL: DIVMTQTPLSLPVTPGEPASISCRSSQSLVHSNRNTYLHWYLQKPGQSPQLLIYKVSNRFSGVPDRFSGSGSGTDFTLKISRVEAEDVGVYYCSQNTHVPPTFGGGTKVEIK
B5: hAb006LH1L1a (antibody, human IgG1, V domains shown)
VH: B1 VH with M34I, T50A, E54K, T61N, D66G, G99Y, Y100F, T103A
VL: B1 VL with N28T, I29F, N33D, F54Y, F101Y
B6: hAb006LH1L1b (antibody, human IgG1, V domains shown)
VH: B1 VH with M34I, T50A, E54K, T61N, D66G, G99Y, Y100F, T103A
VL: B1 VL with N28T, I29F, G34A, F54Y, F101Y
B7: hAb006LH2L1 (antibody, human IgG1, V domains shown)
VH: B1 VH with S30T, M34I, T50A, E54K, T61N, D66G, G99Y, Y100F, T103A
VL: B1 VL with N28T, I29F, F54Y, F101Y
B8: hAb006LH2L1a (antibody, human IgG1, V domains shown)
VH: B1 VH with S30T, M34I, T50A, E54K, T61N, D66G, G99Y, Y100F, T103A
VL: B1 VL with N28T, I29F, N33D, F54Y, F101Y
B9: hAb006LH2L1b (antibody, human IgG1, V domains shown)
VH: B1 VH with S30T, M34I, T50A, E54K, T61N, D66G, G99Y, Y100F, T103A
VL: B1 VL with N28T, I29F, G34A, F54Y, F101Y
B10: hAb006LH3L1a (antibody, human IgG1, V domains shown)
VH: B1 VH with S30T, M34I, T50A, E54K, T61N, D66G, I70L, G99Y, Y100F, T103A
VL: B1 VL with N28T, I29F, N33D, F54Y, F101Y
B11: hAb007LH1L1 (antibody, human IgG1, V domains shown)
VH: B1 VH with T61N, M65K, D66G, G99P, F102L
VL: B1 VL with N28S, I29F, N35D, F54Y, F101Y
B12: hAb007LH1L1a (antibody, human IgG1, V domains shown)
VH: B1 VH with T61N, M65K, D66G, G99P, F102L
VL: B1 VL with N28S, I29F, N33D, N35D, F54Y, F101Y
B13: hAb007LH1L1b (antibody, human IgG1, V domains shown)
VH: B1 VH with T61N, M65K, D66G, G99P, F102L
VL: B1 VL with N28S, I29F, G34R, N35D, F54Y, F101Y
B14: hAb007LH2L1a (antibody, human IgG1, V domains shown)
VH: B1 VH with S30T, T61N, M65K, D66G, G99P, F102L
VL: B1 VL with N28S, I29F, N33D, N35D, F54Y, F101Y
B15: hAb007LH3L1a (antibody, human IgG1, V domains shown)
VH: B1 VH with S30T, T61N, M65K, D66G, I70L, G99P, F102L
VL: B1 VL with N28S, I29F, N33D, N35D, F54Y, F101Y
B16: hAb001H1L1 (antibody, human IgG1, V domains shown)
VH: EVQLVESGGGLVQPGGSLRLSCAASGFSFNTNAMNWVRQAPGKGLEWVGRIRSKSNNYATYYADSVKDRFTISRDDSKNSLYLQMNSLKTEDTAVYYCVRDGYYVLFAYWGQGTLVTVSS
VL: B1 VL with S25F, N28S, H31N, Q39E, Y41F, F54Y
B17: hAb001H1L1a (antibody, human IgG1, V domains shown)
VH: B16 VH
VL: B1 VL with S25F, N28S, H31N, N33D, Q39E, Y41F, F54Y
B18: hAb001H2L1 (antibody, human IgG1, V domains shown)
VH: B16 VH with N79S
VL: B1 VL with S25F, N28S, H31N, Q39E, Y41F, F54Y
B19: hAb001H2L1a (antibody, human IgG1, V domains shown)
VH: B16 VH with N79S
VL: B1 VL with S25F, N28S, H31N, N33D, Q39E, Y41F, F54Y
B20: hAb001H1aL1a (antibody, human IgG1, V domains shown)
VH: B16 VH with D68G
VL: B1 VL with S25F, N28S, H31N, N33D, Q39E, Y41F, F54Y
B21: hAb006LH3L1d (antibody, human IgG1, V domains shown)
VH: B1 VH with S30T, M34I, T50A, E54K, T61N, D66G, I70L, G99Y, Y100F, T103A
VL: B1 VL with N28T, I29F, G34S, F54Y, F101Y
B22: hAb006LH3L1e (antibody, human IgG1, V domains shown)
VH: B1 VH with S30T, M34I, T50A, E54K, T61N, D66G, I70L, G99Y, Y100F, T103A
VL: B1 VL with N28T, I29F, G34V, F54Y, F101Y
B23: hAb007LH1L1d (antibody, human IgG1, V domains shown)
VH: B1 VH with T61N, M65K, D66G, G99P, F102L
VL: B1 VL with N28S, I29F, G34S, N35D, F54Y, F101Y
B24: hAb007LH1L1e (antibody, human IgG1, V domains shown)
VH: B1 VH with T61N, M65K, D66G, G99P, F102L
VL: B1 VL with N28S, I29F, G34V, N35D, F54Y, F101Y
B25: GC33 IgG (antibody, V domains shown)
VH: QVQLVQSGAEVKKPGASVKVSCKASGYTFTDYEMHWVRQAPGQGLEWMGALDPKTGDTAYSQKFKGRVTLTADKSTSTAYMELSSLTSEDTAVYYCTRFYSYTYWGQGTLVTVSS
VL: DVVMTQSPLSLPVTPGEPASISCRSSQSLVHSNRNTYLHWYLQKPGQSPQLLIYKVSNRFSGVPDRFSGSGSGTDFTLKISRVEAEDVGVYYCSQNTHVPPTFGQGTKLEIKR

molecular target: monkey GPC3-His protein (monkey); experiment: ELISA, monkey GPC3-His coated; antibody 0.11 nM

Binder | OD450 nm
B1 | 2.31
B2 | 1.48
B3 | 2.18
B4 | 1.17
B5 | 0.227
B6 | 2.13
B7 | 2.01
B8 | 0.137
B9 | 2.1
B10 | 0.226
B11 | 1.46
B12 | 0.605
B13 | 0.958
B14 | 0.468
B15 | 0.337

molecular target: monkey GPC3-His protein (monkey); experiment: ELISA, monkey GPC3-His coated; antibody 0.53 nM

Binder | OD450 nm
B1 | 2.65
B2 | 2.2
B3 | 2.46
B4 | 1.25
B5 | 0.917
B6 | 2.49
B7 | 2.38
B8 | 0.549
B9 | 2.57
B10 | 1.05
B11 | 2.43
B12 | 1.57
B13 | 1.97
B14 | 1.41
B15 | 1.08

molecular target: monkey GPC3-His protein (monkey); experiment: ELISA, monkey GPC3-His coated; antibody 0.0008 nM

Binder | OD450 nm
B1 | 0.188
B2 | 0.087
B3 | 0.192
B4 | 0.09
B5 | 0.05
B6 | 0.111
B7 | 0.129
B8 | 0.047
B9 | 0.128
B10 | 0.044
B11 | 0.085
B12 | 0.067
B13 | 0.071
B14 | 0.065
B15 | 0.069

molecular target: monkey GPC3-His protein (monkey); experiment: ELISA, monkey GPC3-His coated; antibody 0.004 nM

Binder | OD450 nm
B1 | 0.467
B2 | 0.148
B3 | 0.418
B4 | 0.232
B5 | 0.058
B6 | 0.309
B7 | 0.358
B8 | 0.055
B9 | 0.34
B10 | 0.057
B11 | 0.122
B12 | 0.097
B13 | 0.128
B14 | 0.093
B15 | 0.079

molecular target: monkey GPC3-His protein (monkey); experiment: ELISA, monkey GPC3-His coated; antibody 13.33 nM

Binder | OD450 nm
B1 | 2.62
B2 | 2.35
B3 | 2.64
B4 | 1.24
B5 | 1.82
B6 | 2.5
B7 | 2.23
B8 | 1.84
B9 | 2.46
B10 | 2.09
B11 | 2.54
B12 | 2.44
B13 | 2.37
B14 | 2.39
B15 | 2.37

molecular target: monkey GPC3-His protein (monkey); experiment: ELISA, monkey GPC3-His coated; antibody 66.66 nM

Binder | OD450 nm
B1 | 2.58
B2 | 2.42
B3 | 2.55
B4 | 1.23
B5 | 2.08
B6 | 2.77
B7 | 2.39
B8 | 2.06
B9 | 2.69
B10 | 2.18
B11 | 2.56
B12 | 2.36
B13 | 2.54
B14 | 2.45
B15 | 2.34

molecular target: monkey GPC3-His protein (monkey); experiment: ELISA, monkey GPC3-His coated; antibody 2.67 nM

Binder | OD450 nm
B1 | 2.58
B2 | 2.29
B3 | 2.58
B4 | 1.32
B5 | 1.63
B6 | 2.75
B7 | 2.46
B8 | 1.39
B9 | 2.7
B10 | 1.95
B11 | 2.6
B12 | 2.21
B13 | 2.39
B14 | 2.1
B15 | 1.89

molecular target: monkey GPC3 on HEK293T-monkey GPC3 cells (monkey); experiment: FACS on HEK293T-monkey GPC3 cells

Binder | EC50 [nM] | Max MFI [MFI]
B2 | 4.77 | 22600
B16 | 1.33 | 33500
B17 | 1.87 | 24900
B18 | 1.08 | 33300
B19 | 2.03 | 26900
B20 | 1.68 | 27200
B21 | 6.16 | 84800
B22 | 6.54 | 82900
B23 | 13.6 | 80400
B24 | 19.9 | 59700
B25 | 5.96 | 87000

molecular target: monkey GPC3-His protein (monkey); experiment: ELISA, monkey GPC3-His coated; antibody 0.02 nM

Binder | OD450 nm
B1 | 1.34
B2 | 0.483
B3 | 1.22
B4 | 0.687
B5 | 0.078
B6 | 0.877
B7 | 1.06
B8 | 0.065
B9 | 0.924
B10 | 0.08
B11 | 0.491
B12 | 0.197
B13 | 0.305
B14 | 0.182
B15 | 0.135
